According to patent US20140308259A1 (University of Pennsylvania, published 2014):
One block for each binder: values may come before it.

Target: T1, human B7-H4 at the cell surface (human, UniProt Q7Z7D3 25-282)
T1 sequence (looked up): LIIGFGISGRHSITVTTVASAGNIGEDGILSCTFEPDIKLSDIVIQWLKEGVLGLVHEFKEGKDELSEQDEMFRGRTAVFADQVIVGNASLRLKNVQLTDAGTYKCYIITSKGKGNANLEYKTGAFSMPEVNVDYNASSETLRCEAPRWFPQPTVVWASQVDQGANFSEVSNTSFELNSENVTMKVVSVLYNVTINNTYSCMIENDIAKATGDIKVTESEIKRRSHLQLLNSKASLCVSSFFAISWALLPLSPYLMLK
Experiment: cell-based or functional assay

IFN-γ production of MART-1 TCR T cells in presence of B7-H4+ TAMs: > 2 folds
B1: anti-B7H4 scFv clone 3#54 (scFv)
scFv: RPVLTQPPSAAGTPGQRVTISCSGSSSNIGSNYVYWYQQLPGMAPKLLIYTNNQRPSGVPGRFSGSKSGTSASLAISGLRSEDEADYYCAAWDDSLNGWVFGGGTELTVLGGSSRSSSSGGGGSGGGGQVQLQESGPGLVKPSETLSLTCNVSGRSVSSGFYWSWIRQRPGKGLEWVGSIYRSGLTYYNPSLKSRVTISVDTSKNQFSLKLSSVTAADTAVYYCARATPWYYYGMDVWGQGTTVTVSSFEGSEQ

IFN-γ production of MART-1 TCR T cells in presence of B7-H4+ TAMs: > 2 folds
B2: anti-B7H4 scFv clone 3#68 (scFv)
scFv: QPGLTQPPSASGTPGQRVTISCSGSSSNIGSNYVYWYQQFPGTAPKLLIYRNNQRPSGVPDRFSGSKSGTSASLAISGLRSEDEADYYCAAWDDSLSVWVFGGGTKVTVLGGSSRSSSSGGSGSGGGGQVTLKESGAEVKNPGSSVKVSCKASGGTFSSYAISWLRQAPGQGLEWMGWINPNSGGSDYAQRFQGRVTMTRDTSINTVYMELSRLRSDDTAVYYCARVEKRGYYYGMDVWGQGTMVTVSSFEGSEQ
